Measurements as given in the supplement of paper PMC11780869.

Test system: Bacillus subtilis
Test: cleaved RNA product abundance (RNA/gDNA barcode ratio) relative to median wild-type variant (ratio to wild type); higher = more accumulation of the downstream cleavage product
In short: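 B. subtilis strains with chromosomally integrated reporter mRNAs (truncated aprE or tetM) holding barcoded, mutagenized RNase Y cleavage-site windows grew in LB at 37°C from OD600 0.0003 to 0.3. Cleaved product abundance is each construct's RNA:gDNA barcode ratio, scaled to the median construct with the unmutated site. It came from sequencing barcodes of gel-selected, reverse-transcribed cleaved RNA and of genomic DNA.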

[1] = experiment (reporter, strain, medium): exp 2b: truncated aprE reporter, strain BJT200, cleavage site: cggR-gapA (positions -7 to +36 mutated)
[2] = experiment (reporter, strain, medium): exp 4a: truncated aprE reporter, strain BJT201 with 2% xylose (RNase J1 expressed), cleavage site: cggR-gapA (positions -7 to +36 mutated)
[3] = experiment (reporter, strain, medium): exp 8a: truncated aprE reporter, strain BJT201 with 2% xylose (RNase J1 expressed), cleavage site: glnRA (positions -5 to +31 mutated)

Sequence: ACAGACGAAGGAGCCGCAAAGAAGTTATGAAGGGATGAATTATCCCTCAATATAAATATCTCTCACTTATTTAAA
- cleaved RNA product abundance [1]: 0.232
- cleaved RNA product abundance [2]: 0.343

Sequence: ACAGACGAAGGAGCCGCAAAAAAGTTATTAACGGATGAATAATCCCTCAATATAAATATCTCTCACTTATTTAAA
- cleaved RNA product abundance [2]: 0.128

Sequence: ACAGACGAAGGAGCCGCAAAGAAGTTATTAATGGATGAATAATCCCTCAATATAAAAATCTCTCACTTATTTAAA
- cleaved RNA product abundance [1]: 0.133
- cleaved RNA product abundance [2]: 0.156

Sequence: CGACATGTCCCGCTTCTTTCATTAATCCATTAACAACTGTTTTGCTATATACATTTACCTTTTAAGAGGAGGAAT
- cleaved RNA product abundance [3]: 0.198

Sequence: ACAGACGAAGGAGCCGCAAAGAACTTATTAAAGGATGAATAATCCCTCAATATAAATATCTCTCACTTATTTAAA
- cleaved RNA product abundance [1]: 0.166

Sequence: ACAGACGAAGGAGCCGCAAACAAGTTATTAAGGGATGAATAATCCCTAAATATAAATATCTCTCACTTATTTAAA
- cleaved RNA product abundance [2]: 0.47

Sequence: ACAGACGAAGGAGCCGCAAAAAAGTTAATAAGGGATGAATATTCCCTCAATATAAATATCTCTCACTTATTTAAA
- cleaved RNA product abundance [2]: 0.21

Sequence: ACAGACGAAGGAGCCGCAAAGAAGTTATTAAGGCATGAATAATCCCTGAATATAAATATCTCTCACTTATTTAAA
- cleaved RNA product abundance [1]: 0.102
- cleaved RNA product abundance [2]: 0.0864

Sequence: ACAGACGAAGGAGCCGCAAAGACGTTATTAAGGGATGAATAATCCCTCAACATAAATATCTCTCACTTATTTAAA
- cleaved RNA product abundance [2]: 0.316

Sequence: CGACATGTCCCGCTTCTTTCATTAATCCGTTAGAAACTGTTTTTCTATATACATTTACCTTTTAAGAGGAGGAAT
- cleaved RNA product abundance [3]: 0.511

Sequence: ACAGACGAAGGAGCCGCAAAGAAGTTATTAAGGGATGAATAATTCCTCAATATAAATGTCTCTCACTTATTTAAA
- cleaved RNA product abundance [2]: 0.564

Sequence: ACAGACGAAGGAGCCGCACAGAAGTTACTAAGGGATGAATAATCCCTCAATATAAATATCTCTCACTTATTTAAA
- cleaved RNA product abundance [2]: 0.22

Sequence: ACAGACGAAGGAGCCGCAAAGAAGTTATTAAGGGATGAATAACCCCTTAATATAAATATCTCTCACTTATTTAAA
- cleaved RNA product abundance [1]: 1.34
- cleaved RNA product abundance [2]: 0.505

Sequence: ACAGACGAAGGAGCCGCAAAGAAGTTAGTAATGGATGAATAATCCCTCAATATAAATATCTCTCACTTATTTAAA
- cleaved RNA product abundance [2]: 0.141

Sequence: ACAGACGAAGGAGCCGCAAAGAAGTTATTAAGGGATGAATCATCCCACAATATAAATATCTCTCACTTATTTAAA
- cleaved RNA product abundance [1]: 0.21
- cleaved RNA product abundance [2]: 0.192

Sequence: ACAGACGAAGGAGCCGCAAAGAAGTTATTAAGGGACGAATAATCCCGCAATATAAATATCTCTCACTTATTTAAA
- cleaved RNA product abundance [2]: 0.132

Sequence: ACAGACGAAGGAGCCGCAAAGAAGTTATTAAGGTATGAATAATTCCTCAATATAAATATCTCTCACTTATTTAAA
- cleaved RNA product abundance [1]: 0.0842
- cleaved RNA product abundance [2]: 0.156

Sequence: ACAGACGAAGGAGCCGCAAAGAAGTTATTAAGGGATAAATAATCCCTCAATATAAATAGCTCTCACTTATTTAAA
- cleaved RNA product abundance [2]: 0.553

Sequence: CGACATGTCCCGCTTCTTTCATTAATCCGTTAGCAACTGTGTTACTATATACATTTACCTTTTAAGAGGAGGAAT
- cleaved RNA product abundance [3]: 0.274

Sequence: CGACATGTCCCGCTTCTTTCATTAATACGTTAGCAAGTGTTTTGCTATATACATTTACCTTTTAAGAGGAGGAAT
- cleaved RNA product abundance [3]: 0.882

Sequence: CGACATGTCCCGCTTCTTTCATTAATCCGTTAGCAACAGTTTTGCTATATACATTTAACTTTTAAGAGGAGGAAT
- cleaved RNA product abundance [3]: 0.916

Sequence: ACAGACGAAGGAGCCGCAAAAAAGTTATTATGGGATGAATAATCCCTCAATATAAATATCTCTCACTTATTTAAA
- cleaved RNA product abundance [1]: 0.323
- cleaved RNA product abundance [2]: 0.334

Sequence: ACAGACGAAGGAGCCGCAAAGAAGTTATTAAGGGATAAATAATCCCTCAATTTAAATATCTCTCACTTATTTAAA
- cleaved RNA product abundance [2]: 0.167

Sequence: ACAGACGAAGGAGCCGCAAAGAAGTTATTAAGCGATGAATAATCCCTTAATATAAATATCTCTCACTTATTTAAA
- cleaved RNA product abundance [2]: 0.301

Sequence: ACAGACGAAGGAGCCGCAAAGAAGTTATTAAGGGATGAATAATCCCTCAAGATAAATATTTCTCACTTATTTAAA
- cleaved RNA product abundance [2]: 0.27

Sequence: CGACATGTCCCGCTTCTTTCATTAATCCTTTAGCAACTGTCTTGCTATATACATTTACCTTTTAAGAGGAGGAAT
- cleaved RNA product abundance [3]: 0.661

Sequence: CGACATGTCCCGCTTCTTTCATTAATCCGTTAGCAACTGTTTAGCTATATAAATTTACCTTTTAAGAGGAGGAAT
- cleaved RNA product abundance [3]: 0.426

Sequence: ACAGACGAAGGAGCCGCAAAGAAGTTATTAAGGGTTGAATAATCCCTCAATATAAATCTCTCTCACTTATTTAAA
- cleaved RNA product abundance [2]: 0.173

Sequence: CGACATGTCCCGCTTCTTTCATTAATCCGTTAACAACTGTTTTGCTATATATATTTACCTTTTAAGAGGAGGAAT
- cleaved RNA product abundance [3]: 0.2

Sequence: ACAGACGAAGGAGCCGCAAATAAGTTATTAAGGGATGAATATTCCCTCAATATAAATATCTCTCACTTATTTAAA
- cleaved RNA product abundance [1]: 0.769
- cleaved RNA product abundance [2]: 1.07

Sequence: ACAGACGAAGGAGCCGCACAGAAGTTATTAAGGGATGAATAATCCCTCAACATAAATATCTCTCACTTATTTAAA
- cleaved RNA product abundance [1]: 0.198
- cleaved RNA product abundance [2]: 0.294

Sequence: ACAGACGAAGGAGCCGCAAAGAAGTTATTAAGGGATGAATAATCCCTCAATATATATATCTCTCACTTATTTAAA
- cleaved RNA product abundance [1]: 0.874
- cleaved RNA product abundance [2]: 0.885
- cleaved RNA product abundance (experiment (reporter, strain, medium): exp 6: tetM reporter, strain 168, cleavage site: cggR-gapA (positions -7 to +36 mutated)): 0.832

Sequence: CGACATGTCCCGCTTCTTTCATTAACCCGTTAGCAACTGTTTTGCTATATAGATTTACCTTTTAAGAGGAGGAAT
- cleaved RNA product abundance [3]: 0.53

Sequence: CGACATGTCCCGCTTCTTTCATTAATCAGTTAGCAACTGTTTTGCTATATACATTTAACTTTTAAGAGGAGGAAT
- cleaved RNA product abundance [3]: 0.983

Sequence: ACAGACGAAGGAGCCGCAAAAAAGTTATTAAGGTATAAATAATCCCTCAATATAAATATCTCTCACTTATTTAAA
- cleaved RNA product abundance [2]: 0.0805

Sequence: ACAGACGAAGGAGCCGCAAAGAAGTTATTAATGGATGAATAATCCCTCGATATAAATATCTCTCACTTATTTAAA
- cleaved RNA product abundance [1]: 0.0785
- cleaved RNA product abundance [2]: 0.116

Sequence: CGACATGTCCCGCTTCTTTCATTAATACATTAACAACTGTTTTGCTATATACATTTACCTTTTAAGAGGAGGAAT
- cleaved RNA product abundance [3]: 0.235

Sequence: CGACATGTCCCGCTTCTTTCATTAATCCGTTAGCAACTGTTTTGCTATTTACATATACCTTTTAAGAGGAGGAAT
- cleaved RNA product abundance [3]: 0.317

Sequence: CGACATGTCCCGCTTCTTTCATTAATCCGTTAGCAACCGTGTTACTATATAAATTTACCTTTTAAGAGGAGGAAT
- cleaved RNA product abundance [3]: 0.271

Sequence: CGACATGTCCCGCTTCTTTCATTAATTCGTTAGCAACTGTTTTCCTATATACATTTACCTTTTAAGAGGAGGAAT
- cleaved RNA product abundance [3]: 0.485

Sequence: ACAGACGAAGGAGCCGCAAAGAATTTATTAAGGGATGAAAAATCCCTCAATATAAATATCTCTCACTTATTTAAA
- cleaved RNA product abundance [1]: 0.561
- cleaved RNA product abundance [2]: 0.35

Sequence: ACAGACGAAGGAGCCGCAAAGAAGTTATTAAGAGATAAATAATCCCTCAATATAAATATCTCTCACTTATTTAAA
- cleaved RNA product abundance [1]: 0.0926
- cleaved RNA product abundance [2]: 0.0932

Sequence: ACAGACGAAGGAGCCGCAAAGAAGTTATTAAGGGATGAATAGTCCCTAAATATAAATATCTCTCACTTATTTAAA
- cleaved RNA product abundance [2]: 0.547

Sequence: ACAGACGAAGGAGCCGCAAACAAGTTATTAAGGGATGAATAATCCCTTAATATAAATATCTCTCACTTATTTAAA
- cleaved RNA product abundance [2]: 0.287

Sequence: ACAGACGAAGGAGCCGCAAAGAAGTTATTAACGTATGAATAATCCCTCAATATAAATATCTCTCACTTATTTAAA
- cleaved RNA product abundance [1]: 0.098
- cleaved RNA product abundance [2]: 0.0853

Sequence: ACAGACGAAGGAGCCGCAAAGAAGTTATTAAGGGATGAATCATCCCTCACTATAAATATCTCTCACTTATTTAAA
- cleaved RNA product abundance [2]: 0.22

Sequence: ACAGACGAAGGAGCCGCAAATAAGTTATTAAGGGATGAACAATCCCTCAATATAAATATCTCTCACTTATTTAAA
- cleaved RNA product abundance [1]: 0.897
- cleaved RNA product abundance [2]: 0.924

Sequence: ACAGACGAAGGAGCCGCAAAGAAGTTATTAAGGGATGAATAATCCATCAATATAAGTATCTCTCACTTATTTAAA
- cleaved RNA product abundance [2]: 0.0774

Sequence: ACAGACGAAGGAGCCGCAAAGAATTTATTAAGGGAAGAATAATCCCTCAATATAAATATCTCTCACTTATTTAAA
- cleaved RNA product abundance [1]: 0.289
- cleaved RNA product abundance [2]: 0.518

Sequence: CGACATGTCCCGCTTCTTTCATTAATCCGTTAGCAACTGTTTTACTATATACAATTACTTTTTAAGAGGAGGAAT
- cleaved RNA product abundance [3]: 0.712

Sequence: ACAGACGAAGGAGCCGCAAAGAAGTTAGTAAGGTATGAATAATCCCTCAATATAAATATCTCTCACTTATTTAAA
- cleaved RNA product abundance [2]: 0.135

Sequence: ACAGACGAAGGAGCCGCGAAGAAGTAATTAAGGGATGAATAATCCCTCAATATAAATATCTCTCACTTATTTAAA
- cleaved RNA product abundance [1]: 0.178

Sequence: ACAGACGAAGGAGCCGCAAAGAAGTTATTAAGGGATGAATAATTCCTCAATATACATATCTCTCACTTATTTAAA
- cleaved RNA product abundance [2]: 0.498

Sequence: ACAGACGAAGGAGCCGCAAAGAAGTTATTAAGGGAAGAATAATTCCTCAATATAAATATCTCTCACTTATTTAAA
- cleaved RNA product abundance [1]: 0.165
- cleaved RNA product abundance [2]: 0.21

Sequence: CGACATGTCCCGCTTCTTTCATTATTCCGTTAGCAACTGTTTTGCTATATACATTTACGTTTTAAGAGGAGGAAT
- cleaved RNA product abundance [3]: 2.39

Sequence: CGACATGTCCCGCTTCTTTCATTAATCCGTTAGCAACTGTTTGGCTATATACATTTACATTTTAAGAGGAGGAAT
- cleaved RNA product abundance [3]: 0.339

Sequence: CGACATGTCCCGCTTCTTTCATTACTCCGTTAGCAACTGTTTTGCTATATACGTTTACCTTTTAAGAGGAGGAAT
- cleaved RNA product abundance [3]: 0.332

Sequence: CGACATGTCCCGCTTCTTTCATTAATCCGTTAGCAACTGATTTGCTATAAACATTTACCTTTTAAGAGGAGGAAT
- cleaved RNA product abundance [3]: 0.686

Sequence: ACAGACGAAGGAGCCGCAAAGAAGATCTTAAGGGATGAATAATCCCTCAATATAAATATCTCTCACTTATTTAAA
- cleaved RNA product abundance [2]: 0.166

Sequence: ACAGACGAAGGAGCCGCAAAGAAGTTATTATGGGATGAATACTCCCTCAATATAAATATCTCTCACTTATTTAAA
- cleaved RNA product abundance [2]: 0.212
